# Source: patent publication US20210388087A1 (Chugai, published 2021)
# Changes are numbered by the printed parent chain.
# B1: CE115HA000 N54D (antibody, human IgG1, kappa, L234A L235A, N297A, name in Kabat numbering)
# heavy: QVQLVESGGGVVQPGRSLRLSCAASGFTFSNAWMHWVRQAPGKGLEWVAQIKAKSNDYATYYAESVKGRFTISRDDSKNSLYLQMNSLKTEDTAVYYCRYVHYGAYYGVDAWGQGTTVTVSSASTKGPSVFPLAPSSKSTSGGTAALGCLVKDYFPEPVTVSWNSGALTSGVHTFPAVLQSSGLYSLSSVVTVPSSSLGTQTYICNVNHKPSNTKVDKKVEPKSCDKTHTCPPCPAPEAAGGPSVFLFPPKPKDTLMISRTPEVTCVVVDVSHEDPEVKFNWYVDGVEVHNAKTKPREEQYASTYRVVSVLTVLHQDWLNGKEYKCKVSNKALPAPIEKTISKAKGQPREPQVYTLPPSRCELTKNQVSLSCAVKGFYPSDIAVEWESNGQPENNYKTTPPVLDSDGSFFLVSKLTVDKSRWQQGNVFSCSVMHEALHNHYTQKSLSLSPDYKDDDDK
# chain: EPKSSDKTHTCPPCPAPELLGGPSVFLFPPKPKDTLMISRTPEVTCVVVDVSHEDPEVKFNWYVDGVEVHNAKTKPREEQYNSTYRVVSVLTVLHQDWLNGKEYKCKVSNKALPAPIEKTISKAKGQPREPQVCTLPPSRDELTKNQVSLWCLVKGFYPSDIAVEWESNGQPENNYKTTPPVLDSDGSFFLYSKLTVDKSRWQQGNVFSCSVMHEALHNRYTQKSLSLSP
# light: DIVMTQSPLSLPVTPGEPASISCRSSQSLVHSNRNTYLHWYQQKPGQAPRLLIYKVSNRFSGVPDRFSGSGSGTDFTLKISRVEAEDVGVYYCGQGTQVPYTFGQGTKLEIKRTVAAPSVFIFPPSDEQLKSGTASVVCLLNNFYPREAKVQWKVDNALQSGNSQESVTEQDSKDSTYSLSSTLTLSKADYEKHKVYACEVTHQGLSSPVTKSFNRGEC
# notes: one-arm antibody
# B2: CE115HA000 Q50K (antibody, human IgG1, kappa, L234A L235A, N297A, name in Kabat numbering)
# heavy: B1 heavy with Q50K, D57N
# chain: B1 chain
# light: B1 light
# notes: one-arm antibody
# B3: CE115HA000 R16Q (antibody, human IgG1, kappa, L234A L235A, N297A, name in Kabat numbering)
# heavy: B1 heavy with R16Q, D57N
# chain: B1 chain
# light: B1 light
# notes: one-arm antibody
# B4: CE115HA000 Q105E (antibody, human IgG1, kappa, L234A L235A, N297A, name in Kabat numbering)
# heavy: B1 heavy with D57N, Q114E
# chain: B1 chain
# light: B1 light
# notes: one-arm antibody
# B5: CE115HA000 S52cG (antibody, human IgG1, kappa, L234A L235A, N297A, name in Kabat numbering)
# heavy: B1 heavy with S55G, D57N
# chain: B1 chain
# light: B1 light
# notes: one-arm antibody
# B6: CE115HA000 Q50A (antibody, human IgG1, kappa, L234A L235A, N297A, name in Kabat numbering)
# heavy: B1 heavy with Q50A, D57N
# chain: B1 chain
# light: B1 light
# notes: one-arm antibody
# B7: CE115HA000 N54K (antibody, human IgG1, kappa, L234A L235A, N297A, name in Kabat numbering)
# heavy: B1 heavy with D57K
# chain: B1 chain
# light: B1 light
# notes: one-arm antibody
# B8: CE115HA000 N54Q (antibody, human IgG1, kappa, L234A L235A, N297A, name in Kabat numbering)
# heavy: B1 heavy with D57Q
# chain: B1 chain
# light: B1 light
# notes: one-arm antibody
# B9: CE115HA000 R16E (antibody, human IgG1, kappa, L234A L235A, N297A, name in Kabat numbering)
# heavy: B1 heavy with R16E, D57N
# chain: B1 chain
# light: B1 light
# notes: one-arm antibody
# B10: CE115HA000 S52cD (antibody, human IgG1, kappa, L234A L235A, N297A, name in Kabat numbering)
# heavy: B1 heavy with S55D, D57N
# chain: B1 chain
# light: B1 light
# notes: one-arm antibody
# B11: CE115HA000 Q50D (antibody, human IgG1, kappa, L234A L235A, N297A, name in Kabat numbering)
# heavy: B1 heavy with Q50D, D57N
# chain: B1 chain
# light: B1 light
# notes: one-arm antibody
# B12: CE115HA000 Q50I (antibody, human IgG1, kappa, L234A L235A, N297A, name in Kabat numbering)
# heavy: B1 heavy with Q50I, D57N
# chain: B1 chain
# light: B1 light
# notes: one-arm antibody
# B13: CE115HA000 S30G (antibody, human IgG1, kappa, L234A L235A, N297A, name in Kabat numbering)
# heavy: B1 heavy with S30G, D57N
# chain: B1 chain
# light: B1 light
# notes: one-arm antibody
# B14: CE115HA000 N82aD (antibody, human IgG1, kappa, L234A L235A, N297A, name in Kabat numbering)
# heavy: B1 heavy with D57N, N86D
# chain: B1 chain
# light: B1 light
# notes: one-arm antibody
# B15: CE115HA000 S52cK (antibody, human IgG1, kappa, L234A L235A, N297A, name in Kabat numbering)
# heavy: B1 heavy with S55K, D57N
# chain: B1 chain
# light: B1 light
# notes: one-arm antibody
# B16: CE115HA000 N54F (antibody, human IgG1, kappa, L234A L235A, N297A, name in Kabat numbering)
# heavy: B1 heavy with D57F
# chain: B1 chain
# light: B1 light
# notes: one-arm antibody
# B17: CE115HA000 N54Y (antibody, human IgG1, kappa, L234A L235A, N297A, name in Kabat numbering)
# heavy: B1 heavy with D57Y
# chain: B1 chain
# light: B1 light
# notes: one-arm antibody
# B18: CE115HA000 N54L (antibody, human IgG1, kappa, L234A L235A, N297A, name in Kabat numbering)
# heavy: B1 heavy with D57L
# chain: B1 chain
# light: B1 light
# notes: one-arm antibody
# B19: CE115HA000 R19T (antibody, human IgG1, kappa, L234A L235A, N297A, name in Kabat numbering)
# heavy: B1 heavy with R19T, D57N
# chain: B1 chain
# light: B1 light
# notes: one-arm antibody
# B20: CE115HA000 N76S (antibody, human IgG1, kappa, L234A L235A, N297A, name in Kabat numbering)
# heavy: B1 heavy with D57N, N79S
# chain: B1 chain
# light: B1 light
# notes: one-arm antibody
# B21: CE115HA000 Q50S (antibody, human IgG1, kappa, L234A L235A, N297A, name in Kabat numbering)
# heavy: B1 heavy with Q50S, D57N
# chain: B1 chain
# light: B1 light
# notes: one-arm antibody
# B22: CE115HA000 Q50L (antibody, human IgG1, kappa, L234A L235A, N297A, name in Kabat numbering)
# heavy: B1 heavy with Q50L, D57N
# chain: B1 chain
# light: B1 light
# notes: one-arm antibody
# B23: CE115HA000 S30D (antibody, human IgG1, kappa, L234A L235A, N297A, name in Kabat numbering)
# heavy: B1 heavy with S30D, D57N
# chain: B1 chain
# light: B1 light
# notes: one-arm antibody
# B24: CE115HA000 S52cA (antibody, human IgG1, kappa, L234A L235A, N297A, name in Kabat numbering)
# heavy: B1 heavy with S55A, D57N
# chain: B1 chain
# light: B1 light
# notes: one-arm antibody
# B25: CE115HA000 N54S (antibody, human IgG1, kappa, L234A L235A, N297A, name in Kabat numbering)
# heavy: B1 heavy with D57S
# chain: B1 chain
# light: B1 light
# notes: one-arm antibody
# B26: CE115HA000 S52cL (antibody, human IgG1, kappa, L234A L235A, N297A, name in Kabat numbering)
# heavy: B1 heavy with S55L, D57N
# chain: B1 chain
# light: B1 light
# notes: one-arm antibody
# B27: CE115HA000 Q50Y (antibody, human IgG1, kappa, L234A L235A, N297A, name in Kabat numbering)
# heavy: B1 heavy with Q50Y, D57N
# chain: B1 chain
# light: B1 light
# notes: one-arm antibody
# B28: CE115HA000 S52cQ (antibody, human IgG1, kappa, L234A L235A, N297A, name in Kabat numbering)
# heavy: B1 heavy with S55Q, D57N
# chain: B1 chain
# light: B1 light
# notes: one-arm antibody
# B29: CE115HA000 S52cF (antibody, human IgG1, kappa, L234A L235A, N297A, name in Kabat numbering)
# heavy: B1 heavy with S55F, D57N
# chain: B1 chain
# light: B1 light
# notes: one-arm antibody
# B30: CE115HA000 N54G (antibody, human IgG1, kappa, L234A L235A, N297A, name in Kabat numbering)
# heavy: B1 heavy with D57G
# chain: B1 chain
# light: B1 light
# notes: one-arm antibody
# B31: CE115HA000 S52cV (antibody, human IgG1, kappa, L234A L235A, N297A, name in Kabat numbering)
# heavy: B1 heavy with S55V, D57N
# chain: B1 chain
# light: B1 light
# notes: one-arm antibody
# B32: CE115HA000 Q50E (antibody, human IgG1, kappa, L234A L235A, N297A, name in Kabat numbering)
# heavy: B1 heavy with Q50E, D57N
# chain: B1 chain
# light: B1 light
# notes: one-arm antibody
# Target: T1, CD3 epsilon homodimer protein (UniProt P07766 23-126)
# T1 construct: also called CD3 (CD3 epsilon)
# T1 sequence (P07766 23-126): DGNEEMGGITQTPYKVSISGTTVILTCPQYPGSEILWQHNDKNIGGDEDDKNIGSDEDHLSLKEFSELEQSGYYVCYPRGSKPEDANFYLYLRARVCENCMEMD
# Assay: SPR, CD3 epsilon homodimer on chip, one-arm antibody as analyte;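 note: surface plasmon resonance at 25 °C with CD3 epsilon homodimer amine-coupled to a CM4 sensor chip, antibody injected as analyte, HBS-EP+ as running buffer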
row,Binder,KD ratio (KD of CE115HA000/KD of altered form)
1,B1,0.59
2,B2,0.71
3,B3,0.87
4,B4,0.89
5,B5,0.81
6,B6,22.6
7,B7,0.82
8,B8,0.8
9,B9,0.74
10,B10,0.55
11,B11,75.4
12,B12,1.21
13,B13,0.93
14,B14,0.56
15,B15,0.86
16,B16,0.97

row,Binder,KD ratio (KD of CE115HA000/KD of altered form)
1,B17,1.03
2,B18,0.91
3,B19,0.81
4,B20,0.84
5,B21,47.4
6,B22,1.41
7,B23,0.79
8,B24,0.87
9,B25,0.57
10,B26,0.94
11,B27,49.1
12,B28,0.97
13,B29,0.93
14,B30,0.84
15,B31,0.82
16,B32,16700
